Data published in PMC8379094 (Cell Reports, 2021).

What was measured:
[1] = target: SARS-CoV-2 spike receptor binding domain, wild type, recombinant (Severe acute respiratory syndrome …, UniProt P0DTC2); assay: BLI
[2] = target: SARS-CoV-2 spike S1 subunit, wild type, recombinant (SARS-CoV-2, WT (QHD43416, Wuhan-Hu-1), UniProt P0DTC2); assay: BLI

B1: BL6 mAb (antibody, V domains shown)
VH: EVQLVESGGGLVQPGRSLRLSCEVSGFTFEDYDMQWVRQAPGKGLEWVSGISWNGGIIGYGDSVKGRFTISRDNAKNSLYLQMNSLRGEDTALYSCAKALHSGDDSGQQAFDIWGQGTMVTVSS
VL: SYVLTQPPSVSVAPGQTAKITCGENNIGRRSVHWYQQKPGQAPVLVIFNDSDRPSGIPERFSGSMSGNTATLTISRVEAGDEADYYCQVWDSGSDHVVFGGGTELTVL
Question: Does B1 bind [1]?
Answer: Result: binds

Question: Does B1 bind [2]?
Answer: Result: binds
